Earlier results as cited in paper PMC5114699.

Molecular target: Glu148 (UniProt position 148, MVLGREGPTVQ)

ClC-ec1 Cl-/H+ antiporter (H(+)/Cl(-) exchange transporter ClcA) (Escherichia coli)
pKa: 6.2
